Measurements: patent US20100311844A1, “Spontaneously Forming Ellipsoidal Phospholipid Unilamellar Vesicles” (priority 2006, published 2010)
“Also recorded” adds a separate entry of the source.

B1: SapC: human Saposin C, over expressed in E. coli as His-tag protein, HPLC purified (protein)
chain: SDVYCEVCEFLVKEVTKLIDNNKTEKEILDAFDKMCSKLPKSLSEECQEVVDTYGSSILSILLEEVSPELVCSMLHLCSG
modifications: His-tag
notes: human Saposin C, over expressed in E. coli as His-tag protein, HPLC purified

Legend:
[1] = target: T1, SapC induced membrane fusion (Homo sapiens, UniProt P07602); conditions: reported by Wang et al.; cited from earlier work
T1 sequence (P07602 311-390 limits assumed): B1 chain

[2] = AFM, supported membranes; cited from earlier work
[3] = SANS of non-doped, H1-, H2- and SapC-doped DOPS/DPPC/DHPC mixtures (modified Guinier plot, ellipsoidal shell model fit); assay type: physicochemical; conditions: for effect of peptide on bilayer stability: SANS result; for effect of peptide on ULV size and size distribution / effect of peptide on membrane thickness: peptide 62.5 μM
Protocol: For preparation of liposomes containing protein, SapC was over expressed in E. coli cells using the IPTG-inducing pET system, and His-tag proteins were eluted from nickel columns. After dialysis, the proteins were further purified by HPLC chromatography as follows: The C4 reverse phase column was equilibrated with 0.1% trifluoroacetic acid (TFA) for 10 minutes, then the proteins were eluted in a linear (0-100%) gradient of 0.1% TFA in acetonitrile over 60 minutes. The major protein peak was collected and lyophilized, while protein concentrations were determined as described previously. H1 (YCEVCEFLVKEVTKLID) and H2 (EKEILDAF DKMCSKLPK) peptides were synthesized by SynPep Corp. (California, USA) and dissolved in D2O at a concentration of 1.5 mg/mL. The 0.1 wt. % lipid solution with [DOPS]/[DPPC]=10 and ([DPPC]+[DOPS]/DHPC=4 was then added to the two peptide solutions (1.5 mg/mL) at a volume ratio of 12:1, and the SapC solution with a volume ratio of 1:1, yielding a final peptide (or SapC) concentration of 62.5 μM, (molar ratio of [lipid]/[peptide]=22/1) a concentration higher than the SapC required to induce membrane destabilization. A sample containing only 6.25 μM of SapC ([lipid]/[SapC]=220/1) was also prepared for comparison purposes.
To determine the structure and stability of the resulting liposomes, the homogenized 10 wt. % solutions are first progressively diluted into 5, 2, 1, 0.5 and 0.1 wt. % samples. Prior to DLS measurements, the 0.1 wt. % stock lipid samples are diluted 5, 50 and 200 fold, and are analyzed using an N4^+ particle sizer (Coulter, Miami, Fla.). Using this method, it was determined that diluting the system had no effect on the size of the particles. For SANS experiments, the same sample preparation protocol was applied to the [DOPS]/[DPPC]=10 sample except that D2O (99.9%, Chalk River Laboratories, Chalk River, ON), instead of H2O, was used to obtain a sample with a total lipid concentration of 0.5 wt. %. The 0.5 wt. % sample was then further diluted into 0.1 and 0.05 wt. % mixtures using an acidic buffer composed of equal-volumes of 0.1N sodium acetate (NaAc) and 0.1N acetic acid (HAc).
SANS experiments were carried out on the 30 m NG7 SANS instrument located at the National Institute of Standards and Technology (NIST) Center for Neutron Research (NCNR, Gaithersburg, Md., USA). 8.09 Å wavelength (λ) neutrons, a neutron focusing lens and a long sample-to-detector distance (SDD=15.3 m) were used to reach the lowest scattering vectors [q=4π/λ·sin(θ/2), where θ is the scattering angle]. Two other SDD (5 and 1 m) were also used, covering a combined q range from 0.002 to 0.35 Å^−1 for all three SDD. Raw 2-D data were corrected for detector sensitivity, background, empty cell scattering and sample transmission. The corrected data were then circularly averaged, around the beam center, yielding the customary 1-D data. […] The incoherent plateau was determined by averaging the intensity of 10-20 high q data points and then subtracted from the reduced data.
For q>0.06 Å^−1 the differences in intensity among the three data sets (FIG. 2) are indistinguishable. Analysis of a modified Guinier plot^30 (also known as Kratky-Porod plot) applied to all three samples, where ln(I·q^2) has a linear relationship with q^2 in the range between 5×10^−3 and 2.5×10^−2 Å^−2, indicate the existence of a lamellar structure. […] The lines represent the best-fits to the data. The bilayer thickness is then derived from the square root of the slope multiplying by √{square root over (12)}.
The model for a unilamellar tri-axial ellipsoidal vesicle is depicted as an ellipsoidal shell (FIG. 4) with different core lengths along the three prime axes, acore, bcore and ccore (acore≦bcore≦ccore). The shell lengths along the axes, ashell, bshell and cshell, are defined as (acore+l), (bcore+l) and (ccore+l), respectively, where l is the bilayer thickness. […]

Molecule | inhibition of SapC induced membrane fusion [1] | effect on destabilization and restructuring of lipid membranes [2] | effect of peptide on bilayer stability [3] | effect of peptide on ULV size and size distribution [3] | effect of peptide on membrane thickness [3] | effect of SapC on ULV ([3]; SapC 6.25 μM, [lipid]/[SapC]=220/1) | effect of SapC on ULV ([3]; SapC 62.5 μM, [lipid]/[SapC]=22/1, acetate D2O buffer)
EKEILDAFDKMCSKLPK [H2, helical domain peptide of SapC, synthesized by SynPep Corp] | can inhibit SapC induced membrane fusion | neither H1 nor H2 alone have significant influence on membrane structure | do not destabilize the bilayer morphology | shifts the equilibrium between the two ULV aggregates present | small decreases to the membrane thickness |  | 
YCEVCEFLVKEVTKLID [H1, helical domain peptide of SapC, synthesized by SynPep Corp] | can inhibit SapC induced membrane fusion | neither H1 nor H2 alone have significant influence on membrane structure | do not destabilize the bilayer morphology | does not appear to modify ULV size or their size distribution | small decreases to the membrane thickness |  | 
B1 |  | can destabilize and restructure the acidic membrane |  |  |  | ULV structure is unperturbed; also recorded: do not appear to perturb the size of ULV or their membrane structure | promotes aggregation of ULV
